Test results published in patent US7572764B2, “Uses of chemically-modified cholinesterases for detoxification of organophosporus compounds” (priority 2001, dated 2009).

B1: AChE-PEG-5000 high ratio (conjugate, UniProt P22303 32-614, looked up)
Acetylcholinesterase: EGREDAELLVTVRGGRLRGIRLKTPGGPVSAFLGIPFAEPPMGPRRFLPPEPKQPWSGVVDATTFQSVCYQYVDTLYPGFEGTEMWNPNRELSEDCLYLNVWTPYPRPTSPTPVLVWIYGGGFYSGASSLDVYDGRFLVQAERTVLVSMNYRVGAFGFLALPGSREAPGNVGLLDQRLALQWVQENVAAFGGDPTSVTLFGESAGAASVGMHLLSPPSRGLFHRAVLQSGAPNGPWATVGMGEARRRATQLAHLVGCPPGGTGGNDTELVACLRTRPAQVLVNHEWHVLPQESVFRFSFVPVVDGDFLSDTPEALINAGDFHGLQVLVGVVKDEGSYFLVYGAPGFSKDNESLISRAEFLAGVRVGVPQVSDLAAEAVVLHYTDWLHPEDPARLREALSDVVGDHNVVCPVAQLAGRLAAQGARVYAYVFEHRASTLSWPLWMGVPHGYEIEFIFGIPLDPSRNYTAEEKIFAQRLMRYWANFARTGDPNEPRDPKAPQWPPYTAGAQQYVSLDLRPLEVRRGLRAQACAFWNRFLPKLLSATDTLDEAERQWKAEFHRWSSYMVHWKNQFDHYSKQDRCSDL
modifications: PEG-5000, high ratio
B2: PEGylated BChE (partially sialylated) (conjugate, UniProt P06276 29-602, looked up)
Cholinesterase: EDDIIIATKNGKVRGMNLTVFGGTVTAFLGIPYAQPPLGRLRFKKPQSLTKWSDIWNATKYANSCCQNIDQSFPGFHGSEMWNPNTDLSEDCLYLNVWIPAPKPKNATVLIWIYGGGFQTGTSSLHVYDGKFLARVERVIVVSMNYRVGALGFLALPGNPEAPGNMGLFDQQLALQWVQKNIAAFGGNPKSVTLFGESAGAASVSLHLLSPGSHSLFTRAILQSGSFNAPWAVTSLYEARNRTLNLAKLTGCSRENETEIIKCLRNKDPQEILLNEAFVVPYGTPLSVNFGPTVDGDFLTDMPDILLELGQFKKTQILVGVNKDEGTAFLVYGAPGFSKDNNSIITRKEFQEGLKIFFPGVSEFGKESILFHYTDWVDDQRPENYREALGDVVGDYNFICPALEFTKKFSEWGNNAFFYYFEHRSSKLPWPEWMGVMHGYEIEFVFGLPLERRDNYTKAEEILSRSIVKRWANFAKYGNPNETQNNSTSWPVFKSTEQKYLTLNTESTRIMTKLRAQQCRFWTSFFPKVLEMTGNIDEAEWEWKAGFHRWNNYMMDWKNQFNDYTSKKESCVGL
modifications: PEG; partially sialylated

Test: Clearance experiments in mice, pharmacokinetic profiles
Experimental: The pharmacokinetic profiles of non-modified and various preparations of PEG-modified AChE were resolved. Clearance experiments in mice (3 to 6 ICR male mice per enzyme sample) and analysis of pharmacokinetic profiles were carried out as described essentially previously [Kronman, C., et al. (1992), Gene 121, 295-304]. The study was approved by the local ethical committee on animal experiments. Mice were injected with the various rHuAChE preparations (40 μg/mouse in 0.2 ml PBS). Residual AChE activity in blood samples was measured and all values were corrected for background hydrolytic activity in the blood (using samples withdrawn 1 hour before performing the experiment). AChE activity values in samples removed immediately after injection were assigned a value of 100% and used for calculation of residual activity. […] This model enables determination of the parameters A and B which represent the fractions of the material removed from the circulation in the first-fast and second-slow elimination phases respectively, and T1/2α and T1/2β which represent the circulatory half-life values of the enzyme in the fast and slow phases. The pharmacokinetic parameters MRT (mean residence time, which reflects the average length of time the administered molecules are retained in the organism) and CL (clearance, which represents the proportionality factor relating the rate of substance elimination to its plasma concentration (CL=dose/area under the concentration-time curve), were independently obtained by analyzing the clearance data according to a noncompartmental pharmacokinetic model using the WinNonlin computer program. The comparative results are set forth in Table 3 below.

| Molecule | T1/2[…] (circulatory half-life, fast phase, ICR mice, 40 μg/mouse) [h] | T1/2β (circulatory half-life, slow phase, ICR mice, 40 μg/mouse) [h] | A (% of total) (fraction removed in first-fast elimination phase, ICR mice, 40 μg/mouse) | B (% of total) (fraction removed in second-slow elimination phase, ICR mice, 40 μg/mouse) | MRT (mean residence time, noncompartmental model, mice) [h] | Clearance (noncompartmental model, ICR mice, 40 μg/mouse) [mL/min/kg] | circulatory residence time (in words) (mice) |
| --- | --- | --- | --- | --- | --- | --- | --- |
| B1 | 0.467 ± 0.083 | 9 ± 1.17 | 46 ± 3 % of total | 64 ± 3 % of total | 12.3 ± 1.33 | 0.22 |  |
| B2 |  |  |  |  |  |  | significantly increased |
